Tests used:
Assay in all cases: cell-based or functional assay
[1] = biological target: mitochondrial ATP synthase (ETC Complex V) ATPase in rat liver submitochondrial particles (SMP) (rat, UniProt P15999 44-553; P10719 47-529; P35435 1-273; P35434 23-168; P29418 2-51)
[2] = biological target: purified F0-F1 ATPase complex isolated from bovine cardiac samples (bovine, UniProt P19483 44-553; P00829 47-528; P05631 26-297; P05630 23-168; P05632 2-51)
[3] = biological target: F0-F1-ATPase in rat ASMPs (alkaline submitochondrial particles) prepared from rat cardiac samples (rat, UniProt P15999 44-553; P10719 47-529; P35435 1-272; P35434 23-168; P29418 2-51)
[4] = biological target: purified F1-ATPase subcomplex isolated from bovine cardiac samples (bovine, UniProt P19483 44-553; P00829 47-528; P05631 26-297; P05630 23-168; P05632 2-51)

Binder	IC50, inhibition of oligomycin-sensitive ATPase in rat liver SMP [1] [nM]	IC50, inhibition of ATP hydrolysis by purified F0-F1-ATPase [2] [nM]	IC50, inhibition of F0-F1-ATPase in rat ASMPs [3] [nM]	IC50, inhibition of ATP hydrolysis by purified F1-ATPase [4] [nM]
SIREAGGAFGKREKAEEDRYFREKTREQLA [IF1 peptide 14-43 (synthetic peptide fragment of rat IF1)]	> 1500	–	–	–
SIREAGGAFGKREKAEEDRYFREKTREQL [IF1 peptide 14-42 (synthetic peptide fragment of rat IF1)]	> 2600	–	–	–

More lines, now with the values ahead:

IC50, inhibition of oligomycin-sensitive ATPase in rat liver SMP [1] [nM]	IC50, inhibition of ATP hydrolysis by purified F0-F1-ATPase [2] [nM]	IC50, inhibition of F0-F1-ATPase in rat ASMPs [3] [nM]	IC50, inhibition of ATP hydrolysis by purified F1-ATPase [4] [nM]	Binder
–	~180	~2500	~870	LAALKKHHEDEIDHHSK [IF1(42-58) synthetic polypeptide, amino acids 42-58 of the mature form of rat IF1]
–	–	–	~1390	FGKREKAEEDRYFREKTREQLAALK [IF1(22-46) synthetic polypeptide, amino acids 22-46 of the mature form of rat IF1]

Reference: patent US20030026781A1 (MITOKOR, published 2003)
